In US20260191981A1 (ARROWHEAD PHARMACEUTICALS, published 2026):

How the values were obtained:
[1] = target: T1, cynomolgus monkey transferrin receptor 1 (cTfR1) (cynomolgus monkey, UniProt H9EXL1 89-760 (rhesus entry)); assay: competition ELISA, Fab
T1 construct: The ELISA against cTfR1 is not described in the text

[2] = target: T2, human transferrin receptor 1 (hTfR1) (human, UniProt P02786 89-760, limits assumed); assay: competition phage ELISA (phage-displayed Fab)
T2 construct: The selections used the biotinylated ECD domain of hTfR1

[3] = target: T3, his-tagged cTfR1 (Acro Biosystems p/n TFR-C524a) (cynomolgus monkey, UniProt H9EXL1 89-760 (rhesus entry)); assay: SPR, Biacore X100, His-tagged TfR1 captured by anti-His
T3 construct: Bought reagent of the SPR assay
Method: Samples were analyzed via Surface Plasmon Resonance (SPR) to determine kinetics against cynomolgus monkey transferrin receptor 1 (cTfR1). Briefly, a Biacore X100 (Cytiva) was used for SPR measurements using a CM5 chip (carboxymethylated dextran surface, Cytiva p/n BR100399) with anti-histidine antibody irreversibly immobilized on the surface of both flow cells for the reversible capture of his-tagged cTfR1 (Acro Biosystems p/n TFR-C524a). The anti-histidine antibody was irreversibly immobilized via amine coupling using Cytiva provided Amine Coupling Kit (p/n BR100050) and His Capture Kit (p/n 28995056). […] Sample diluent was prepared in house and is composed of 10 mM HEPES buffer pH 7.4, 150 mM NaCl, 3 mM EDTA, and 0.05% Tween 20. Cytiva caps and vials compatible for Biacore X₁₀₀ were used for sample analysis. Each analysis cycle consists of a capture step followed by sample or blank injection, and finally a regeneration step that removes any sample and cTfR1 on the sensor surface. The capture step was performed at 5 μL/min with a contact time of 24 seconds over the active flow cell only, followed by a fluidics wash with 0.1% Tween 20. Generally, 2 μg/mL hTfR1 was a sufficient concentration to observe adequate hTfR1 captured consistently between cycles. Sample or buffer was injected at 30 μL/min with a contact time of 180 seconds and dissociation time of 180 seconds followed by a fluidics wash with 0.1% Tween 20. A 10 mM glycine solution at pH 1.5 (provided in His Capture Kit) was used for regeneration at 30 μL/min with a 60 second contact time. A cycle was performed for each sample concentration analyzed along with one cycle repeating one concentration for variability evaluation and 2-3 buffer cycles. Results were analyzed in Biacore Evaluation Software. Buffer cycles were averaged and subtracted from sample injections prior to kinetic fitting. A monovalent or kinetic fit was specified as relevant for the sample analyzed. Accuracy of the fit is evaluated and data points are excluded as applicable.

[4] = target: T4, his-tagged hTfR1 (Acro Biosystems p/n CD1-H5243) (human, UniProt P02786 89-760); assay: as above
T4 construct: Bought reagent of the SPR assay
Method: Samples were analyzed via Surface Plasmon Resonance (SPR) to determine kinetics against human transferrin receptor 1 (hTfR1). Briefly, a Biacore X100 (Cytiva) was used for SPR measurements using a CM5 chip (carboxymethylated dextran surface, Cytiva p/n BR100399) with anti-histidine antibody irreversibly immobilized on the surface of both flow cells for the reversible capture of his-tagged hTfR1 (Acro Biosystems p/n CD1-H5243). The anti-histidine antibody was irreversibly immobilized via amine coupling using Cytiva provided Amine Coupling Kit (p/n BR100050) and His Capture Kit (p/n 28995056). […] Sample diluent was prepared in house and is composed of 10 mM HEPES buffer pH 7.4, 150 mM NaCl, 3 mM EDTA, and 0.05% Tween 20. Cytiva caps and vials compatible for Biacore X100 are used for sample analysis. Each analysis cycle consists of a capture step followed by sample or blank injection, and finally a regeneration step that removes any sample and hTfR1 on the sensor surface. The capture step was performed at 5 μL/min with a contact time of 24 seconds over the active flow cell only, followed by a fluidics wash with 0.1% Tween 20. Generally, 2 μg/mL hTfR1 is a sufficient concentration to observe adequate hTfR1 captured consistently between cycles. Sample or buffer was injected at 30 μL/min with a contact time of 180 seconds and a dissociation time of 180 seconds followed by a fluidics wash with 0.1% Tween 20. A 10 mM glycine solution at pH 1.5 (provided in His Capture Kit) was used for regeneration at 30 μL/min with a 60 second contact time. A cycle was performed for each sample concentration analyzed along with one cycle repeating one concentration for variability evaluation and 2-3 buffer cycles. Results were analyzed in Biacore Evaluation Software. Buffer cycles were averaged and subtracted from sample injections prior to kinetic fitting. A monovalent or kinetic fit was specified as relevant for the sample analyzed. Accuracy of the fit was evaluated and data points are excluded as applicable. […]

[5] = target: T2, human transferrin receptor 1 (hTfR1); assay: competition ELISA, Fab
[6] = target: T1, cynomolgus monkey transferrin receptor …; assay: competition phage ELISA (phage-displayed Fab)

T3 sequence (chain, as listed by the source): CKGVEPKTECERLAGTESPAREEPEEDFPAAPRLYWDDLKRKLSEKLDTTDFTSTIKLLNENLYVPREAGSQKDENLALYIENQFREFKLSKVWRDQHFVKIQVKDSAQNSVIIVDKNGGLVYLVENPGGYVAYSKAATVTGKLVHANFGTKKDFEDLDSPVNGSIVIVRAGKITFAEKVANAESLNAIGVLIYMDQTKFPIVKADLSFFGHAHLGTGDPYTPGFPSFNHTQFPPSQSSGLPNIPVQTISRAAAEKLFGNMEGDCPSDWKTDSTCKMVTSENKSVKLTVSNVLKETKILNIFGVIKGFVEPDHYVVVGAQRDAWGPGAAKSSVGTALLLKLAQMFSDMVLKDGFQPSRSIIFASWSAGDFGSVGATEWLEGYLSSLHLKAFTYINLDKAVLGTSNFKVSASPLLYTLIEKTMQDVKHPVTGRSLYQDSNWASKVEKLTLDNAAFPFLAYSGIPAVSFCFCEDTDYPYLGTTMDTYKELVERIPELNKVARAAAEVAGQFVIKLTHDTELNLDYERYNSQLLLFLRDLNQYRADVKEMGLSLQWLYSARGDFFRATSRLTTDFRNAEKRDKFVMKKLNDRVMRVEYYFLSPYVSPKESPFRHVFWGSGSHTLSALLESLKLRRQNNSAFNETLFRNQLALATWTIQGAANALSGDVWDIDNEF
T4 sequence (P02786 89-760 limits assumed): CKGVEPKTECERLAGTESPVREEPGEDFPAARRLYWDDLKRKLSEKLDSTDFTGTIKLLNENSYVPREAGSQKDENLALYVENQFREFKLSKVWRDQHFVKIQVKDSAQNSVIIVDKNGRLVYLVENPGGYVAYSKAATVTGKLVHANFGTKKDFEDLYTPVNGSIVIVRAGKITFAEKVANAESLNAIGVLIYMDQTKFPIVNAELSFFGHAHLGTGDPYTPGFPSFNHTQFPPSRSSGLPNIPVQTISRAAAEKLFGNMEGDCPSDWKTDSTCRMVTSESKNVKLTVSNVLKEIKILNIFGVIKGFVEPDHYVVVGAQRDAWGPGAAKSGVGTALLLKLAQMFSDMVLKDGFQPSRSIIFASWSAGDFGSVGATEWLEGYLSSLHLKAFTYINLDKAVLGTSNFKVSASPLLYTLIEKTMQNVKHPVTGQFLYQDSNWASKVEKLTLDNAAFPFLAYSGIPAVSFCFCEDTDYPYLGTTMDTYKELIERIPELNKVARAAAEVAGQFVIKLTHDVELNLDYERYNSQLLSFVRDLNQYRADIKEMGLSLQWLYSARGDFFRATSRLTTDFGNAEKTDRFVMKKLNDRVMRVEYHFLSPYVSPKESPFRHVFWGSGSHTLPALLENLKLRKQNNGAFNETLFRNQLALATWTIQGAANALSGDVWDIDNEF
T1 sequence (chain, as listed by the source): as the sequence (chain, as listed by the source) above
T2 sequence (P02786 89-760 limits assumed): as the sequence (P02786 89-760 limits assumed) above

B1: Fab0002 (Fab, V domains shown)
VH: EVQLVQSGAEVKKPGASVKVSCKASGYTFTSYWMHWVRQAPGQRLEWIGEINPTNGRTNYIEKFKSRATLTVDKSASTAYMELSSLRSEDTAVYYCARGTRAYHYWGQGTMVTVSS
VL: DIQMTQSPSSLSASVGDRVTITCRASDNLYSNLAWYQQKPGKSPKLLVYDATNLADGVPSRFSGSGSGTDYTLTISSLQPEDFATYYCQHFWGTPLTFGQGTKVEIKR
[1]
  Kd: 33.8 nM
[2]
  Kd: 2.8 nM
[3]
  Kd: 25.2 nM
  koff: 0.0155 s⁻¹
  kon: 614000 M⁻¹ s⁻¹
[4]
  Kd: 7.68 nM
  koff: 0.00499 s⁻¹
  kon: 649000 M⁻¹ s⁻¹
[5]
  Kd: 7.28 nM
[6]
  Kd: 0.96 nM
